Experimental data published in patent US20260015434A1, “ANTIBODY MATERIALS AND METHODS TARGETING MICROBIAL POLYSACCHARIDES” (priority 2022, published 2026).
Substitutions are numbered along the chain they refer to. Numbers in names are those of the source.

B1: TG10 W38A: TG10 HC W38A (SEQ ID NO: 47) with TG10 LC (SEQ ID NO: 12) (antibody, V domains shown)
VH: EVQLVESGGGLVQPGGSLRLSCAVSGFPFSSYAMSWVRQAPGKGLEWVANIKEDGSEKYYVDSVKGRFTISRDNAKNSLYLQMNSLRAEDTAVYYCATDPDVGLSDSWGQGTLVTVSS
VL: EIVLTQSPGTLSLSPGDRATHSCRASQSVSRSYLAWYQQKPGQTPRLFIYGASNRATGIPDRFSGSGSGTYFTLTISRLEPEDFAVYYCQQYDSAPDTFGQGTRLEIK
modifications: Site directed mutatation of TG10 HC Variable Region; TG10 Light Chain Variable Region
B2: TG10 D109K: TG10 HC D109K (SEQ ID NO: 48) with TG10 LC (SEQ ID NO: 12) (antibody, V domains shown)
VH: B1 VH with A33W, D101K
VL: B1 VL
modifications: Site directed mutatation of TG10 HC Variable Region; TG10 Light Chain Variable Region
B3: TG10 D107A: TG10 HC D107A (SEQ ID NO: 41) with TG10 LC (SEQ ID NO: 12) (antibody, V domains shown)
VH: B1 VH with A33W, D99A
VL: B1 VL
modifications: Site directed mutation of TG10 HC Variable Region; TG10 Light Chain Variable Region
B4: TG10 LC Y38A: TG10 HC (SEQ ID NO: 3) with TG10 LC Y38A (SEQ ID NO: 43) (antibody, V domains shown)
VH: B1 VH with A33W
VL: EIVLTQSPGTLSLSPGDRATHSCRASQSVSRSALAWYQQKPGQTPRLFIYGASNRATGIPDRFSGSGSGTYFTLTISRLEPEDFAVYYCQQYDSAPDTFGQGTRLEIKLC
modifications: TG10 Heavy Chain Variable Region; Site directed mutation of TG10 LC Variable Region
B5: TG10 D109A: TG10 HC D109A (SEQ ID NO: 42) with TG10 LC (SEQ ID NO: 12) (antibody, V domains shown)
VH: B1 VH with A33W, D101A
VL: B1 VL
modifications: Site directed mutatation of TG10 HC Variable Region; TG10 Light Chain Variable Region
B6: TG10 E57A: TG10 HC E57A (SEQ ID NO: 37) with TG10 LC (SEQ ID NO: 12) (antibody, V domains shown)
VH: B1 VH with A33W, E53A
VL: B1 VL
modifications: Site directed mutation of TG10 HC Variable Region; TG10 Light Chain Variable Region
B7: TG10 LC Y55A: TG10 HC (SEQ ID NO: 3) with TG10 LC Y55A (SEQ ID NO: 40) (antibody, V domains shown)
VH: B1 VH with A33W
VL: B1 VL with Y50A
modifications: TG10 Heavy Chain Variable Region; Site directed mutation of TG10 LC Variable Region
B8: TG10 D116A: TG10 HC D116A (SEQ ID NO: 34) with TG10 LC (SEQ ID NO: 12) (antibody, V domains shown)
VH: B1 VH with A33W, D106A
VL: B1 VL
modifications: Site directed mutation of TG10 HC Variable Region; TG10 Light Chain Variable Region
B9: TG10 Y37A: TG10 HC Y37A (SEQ ID NO: 31) with TG10 LC (SEQ ID NO: 12) (antibody, V domains shown)
VH: B1 VH with Y32A, A33W
VL: B1 VL
modifications: Site directed mutation of TG10 HC Variable Region; TG10 Light Chain Variable Region
B10: 285 × TG: 4488285 HC (SEQ ID NO: 46) with TG10 LC (SEQ ID NO: 12) (antibody, V domains shown)
VH: B1 VH with V24A, P28T, A33W, E53Q, T98R, D101Y, V102M, S105I, S107Y
VL: B1 VL
modifications: Based on an antibody sequence.; TG10 Light Chain Variable Region
B11: TG10 P108A: TG10 HC P108A (SEQ ID NO: 36) with TG10 LC (SEQ ID NO: 12) (antibody, V domains shown)
VH: B1 VH with A33W, P100A
VL: B1 VL
modifications: Site directed mutation of TG10 HC Variable Region; TG10 Light Chain Variable Region
B12: TG10 V110R: TG10 HC V110R (SEQ ID NO: 39) with TG10 LC (SEQ ID NO: 12) (antibody, V domains shown)
VH: B1 VH with A33W, V102R
VL: B1 VL
modifications: Site directed mutation of TG10 HC Variable Region; TG10 Light Chain Variable Region
B13: 729 × TG: 15729 HC (SEQ ID NO: 44) with TG10 LC (SEQ ID NO: 12) (antibody, V domains shown)
VH: B1 VH with V24A, P28T, A33W, E53Q, T98R, V102G, G103R, L104I, S105F, S107Y
VL: B1 VL
modifications: Based on an antibody sequence.; TG10 Light Chain Variable Region
B14: 120 × TG: 1467120 HC (SEQ ID NO: 45) with TG10 LC (SEQ ID NO: 12) (antibody, V domains shown)
VH: B1 VH with E1Q, V24A, P28T, A33W, E53Q, T98R, D101E, V102G, S105P, S107Y
VL: B1 VL
modifications: Based on an antibody sequence.; TG10 Light Chain Variable Region
B15: TG10 Y66A: TG10 HC Y66A (SEQ ID NO: 38) with TG10 LC (SEQ ID NO: 12) (antibody, V domains shown)
VH: B1 VH with A33W, Y59A
VL: B1 VL
modifications: Site directed mutation of TG10 HC Variable Region; TG10 Light Chain Variable Region
B16: ADI-45379: Original clone from screen; HC SEQ ID NO: 1, LC SEQ ID NO: 2 (antibody, listed as Homo sapiens, V domains shown)
VH: B1 VH with V5L, A33W
VL: B1 VL with I2T, V3T, G9A

test system: PNAG conjugates on the array (dPNAG, PNAG and intermediate levels of deacetylation); assay: Neoglycoprotein (glycan) microarray binding, 816-component array; details: single point mutations
Experimental: (§1) Neoglycoprotein (NGP) microarray fabrication was performed as follows. Several NGP microarrays were constructed as previously described. Two large arrays (8 duplicate arrays per slide) composed of 815 and 870 neoglycoproteins, glycoproteins, glycopeptide conjugates, and controls were constructed and used for the experiments in this report. Additionally, a PNAG-focused array (16 duplicates per slide) with 49 array components was fabricated and used to determine apparent KD values. Array component parent stocks were diluted to 125-200 μg/mL into print buffer (1×PBS buffer with 2.5% (v/v) glycerol, 0.0005% (v/v) Triton-X 100, 0.0005 μg/mL soluble print dye 0.05 μg/mL Atto 532 (Sigma 06699). Formulated components were printed in duplicate onto 2D-Epoxy functionalized glass slides (Poly-An #104-00-221) or SuperEpoxy 2 microarray slides (ArrayIt) using an Arrayit NanoPrint LM60 arrayer at 60% humidity. Following the print, slides were scanned in a microarray fluorescence scanner (Innopsys, InnoScan 1100 AL) to validate that array components were successfully deposited onto the slide surface. Binding profiles for a representative set of lectins and antibodies were used as QC for each printed microarray batch. The printed NGP microarrays were stored under vacuum at −20° C.
(§2) Antibody selectivity and apparent KD were determined using a NGP microarray. A pre-assay scan was performed to control for missing features. Selectivity and affinity of most mAbs were measured on the full array. A focused array was used to acquire an apparent KD measurement. A slide module (8 well for full array and 16-well for focused array) was mounted onto each slide and blocking buffer (3% BSA in PBS, pH 7.4) was applied to each well of the array. Blocking was performed overnight at 4° C. mAbs were serial diluted in binding buffer (1% BSA in PBST, pH 7.4). Following the block, wells were washed 4× with wash buffer (PBST, PBS with 0.05% tween-20). Primary mAb incubation was performed for 2.5 hours at 37° C. The wells were washed 5× with wash buffer. A CY3-labeled secondary antibody specific for the Fc portion of human IgG was diluted 500 fold into binding buffer and added to each array well (Jackson ImmunoResearch, 109-165-098). Secondary mAb incubation was performed for 1.5 hours at 37° C. Wells were washed 5× with wash buffer. Slides were removed from the slide module and submerged in wash buffer for 5 minutes. Washed slides were dried by centrifugation @ 1000×g in a centrifuge quipped with a swing bucket rotor. Fluorescent scans were obtained at multiple PMT values to maximize dynamic range. Raw data was analyzed using GenePix 7.0 software as previously described. Selectivity profiles and apparent KD curves were plotted in excel and Graphpad Prism. Apparent Kos were determined using one-site specific binding algorithm in Graphpad Prism.

Row | Molecule | function of TG10 variant (binding to PNAG conjugates on the array)
1 | B1 | functionally dead
2 | B2 | functionally dead
3 | B3 | functionally dead
4 | B4 | functionally dead

test system: PNAG 0 (fully deacetylated glucosamine pentasaccharide conjugate); assay: Glycan microarray binding / apparent KD; details: fully deacetylated PNAG conjugate PNAG 0
Experimental: as §1, §2

Row | Molecule | effect of single point mutation on binding between TG10 and PNAG 0
5 | B1 | completely removed binding
6 | B2 | completely removed binding
7 | B3 | completely removed binding
8 | B5 | greatly reduce
9 | B4 | completely removed binding
10 | B6 | greatly reduce

test system: PNAG conjugates on the array (dPNAG, PNAG and intermediate levels of deacetylation); assay: Neoglycoprotein (glycan) microarray binding, 816-component array; details: ability to bind both dPNAG and PNAG and intermediate levels of deacetylation

Row | Molecule | PNAG Binding on Array
11 | B1 | No
12 | B7 | Yes
13 | B8 | Yes
14 | B9 | Yes
15 | B2 | No
16 | B10 | No
17 | B11 | Yes
18 | B12 | Yes
19 | B13 | No
20 | B14 | No
21 | B15 | Yes
22 | B16 | Yes
23 | B6 | Yes
